Non-standard residues stand in square brackets, D forms with d. No end group written: not given here. pY = N[C@@H](Cc1ccc(OP(=O)(O)O)cc1)C(=O)O
Target: wild-type Src SH2 domain (UniProt P12931 151-248)
Assay: fluorescence polarisation
Settings: both partners purified

GG[pY]GG (source: synthetic peptide) [mini peptide GGpYGG]
Kd: > 50 µM

— publication PMC6208348 (Nature Communications, 2018)
